Several values for one entry are separate records, joined by “and”; a condition that tells them apart may be missing. Equal values may be shown once.
Substrate: NCCCNCCCCNCCCN
Experiment: purified protein, by the assay type
Conditions: other: substrate, 2.5 nM hSMOX; 11.3 °C

B1: hSMOX (Homo sapiens) (protein)
chain: MQSCESSGDSADDPLSRGLRRRGQPRVVVIGAGLAGLAAAKALLEQGFTDVTVLEASSHIGGRVQSVKLGHATFELGATWIHGSHGNPIYHLAEANGLLEETTDGERSVGRISLYSKNGVACYLTNHGRRIPKDVVEEFSDLYNEVYNLTQEFFRHDKPVNAESQNSVGVFTREEVRNRIRNDPDDPEATKRLKLAMIQQYLKVESCESSSHSMDEVSLSAFGEWTEIPGAHHIIPSGFMRVVELLAEGIPAHVIQLGKPVRCIHWDQASARPRGPEIEPRGEGDHNHDTGEGGQGGEEPRGGRWDEDEQWSVVVECEDCELIPADHVIVTVSLGVLKRQYTSFFRPGLPTEKVAAIHRLGIGTTDKIFLEFEEPFWGPECNSLQFVWEDEAESHTLTYPPELWYRKICGFDVLYPPERYGHVLSGWICGEEALVMEKCDDEAVAEICTEMLRQFTGNPNIPKPRRILRSAWGSNPYFRGSYSYTQVGSSGADVEKLAKPLPYTESSKTAPMQVLFSGEATHRKYYSTTHGALLSGQREAARLIEMYRDLFQQGT
**Q.** How did the Km turn out when B1 was run?
**A.** 34 µM and 33.9 ± 2.7 µM

Source: paper PMC9355956, “Structure of human spermine oxidase in complex with a highly selective allosteric inhibitor” (Communications Biology, 2022)
